Test [1] deals with GST-fused human PPARγ-LBD (human). In words: AlphaScreen or HTRF; LanthaScreen TR-FRET coregulator peptide assay; serial concentrations of F12016 with GST-PPARγ-LBD, terbium-labeled anti-GST antibody and fluorescein-labeled peptide, 4 h; coactivator data as percent of the maximum of rosiglitazone. (In general: Alpha assays give light when donor and acceptor beads are brought close together.)

Test [2] has the same target. In words: AlphaScreen or HTRF; LanthaScreen TR-FRET coregulator peptide assay; serial concentrations of rosiglitazone with GST-PPARγ-LBD, terbium-labeled anti-GST antibody and fluorescein-labeled peptide, 4 h; 520 nm/495 nm ratio.

The text below walks through data of paper PMC4381330, “Identification of a novel selective agonist of PPARγ with no promotion of adipogenesis and less inhibition of osteoblastogenesis” (Scientific Reports, 2015).

“steroid receptor coactivator (SRC) 3 peptide, fluorescein-labeled” came in with an efficacy (maximum recruitment, % of rosiglitazone), with F12016 in test [1] of 23%. Also, the efficacy (maximum recruitment, % of rosiglitazone), with rosiglitazone in test [2] was 100%.

With “transcriptional intermediary factor 2 (TIF2) peptide, fluorescein-labeled”, the efficacy (maximum recruitment, % of rosiglitazone), with F12016 in test [1] was 17%. Besides, in test [2], the efficacy (maximum recruitment, % of rosiglitazone), with rosiglitazone turned out to be 100%.

Regarding “CREB-binding protein (CBP) peptide, fluorescein-labeled”, the efficacy (maximum recruitment, % of rosiglitazone), with F12016 in test [1] was 10%. Also, in test [2], the efficacy (maximum recruitment, % of rosiglitazone), with rosiglitazone turned out to be 100%.

“steroid receptor coactivator (SRC) 1 peptide, fluorescein-labeled” came in with an efficacy (maximum recruitment, % of rosiglitazone), with F12016 in test [1] of 26%. Also, the efficacy (maximum recruitment, % of rosiglitazone), with rosiglitazone in test [2] amounted to 100%.
